Values joined by “and” are separate entries in the source; they are usually repeats but may differ in a detail not shown here. Identical values can stand only once.
Tests used:
[1] = target: HIV-1 capsid protein p24 (His-p24) (HIV-1) (UniProt P12493); test: BLI; in the same nanobody storage buffer (Fig. S5)
[2] = target: HIV-1 capsid protein p24 (His-p24) (HIV-1) (UniProt P12493); test: ITC; nanobody (200 uM, syringe) titrated into His-p24 (12.5 uM, cell); 10 mM phosphate pH 8, 25 mM NaCl; 25.1 C; at least triplicate

B1: nanobody 59H10 (VHH)
VHH: DVQLQESGGGLVQAGGSLRLSCAASGSISRFNAMGWWRQAPGKEREFVARIVKGFDPVLADSVKGRFTISIDSAENTLALQMNRLKPEDTAVYYCFAALDTAYWGQGTQVTVSS
Kd [1]: 0.77 nM
dH [2]: -3.9 kcal/mol

B2: nanobody 37E7 (VHH)
VHH: DVQLQESGGGLVQAGGSLRLSCAASGSISRFNAMGWWRQAPGKEREFVARIVKGGYAVLADSVKGRFTISIDSAENTLALQMNRLKPEDTAVYYCFAALDTAYWGQGTQVTVSS
Kd [1]: 9.6 nM
dH [2]: -4.1 kcal/mol and -4.09 kcal/mol
